Results as given in PMC9224989, “Structural Analysis of Human Fascin-1: Essential Protein for Actin Filaments Bundling” (Life, 2022).

Biological target: the molecule itself
Assay: native gel or EMSA; 8% native PAGE; equal amounts (2.5 μg) of FLF and CHF mixed and incubated for 1 h at 4 °C; lanes CHF, FLF, FLF + CHF

B1: C-terminal half of human fascin 1 (CHF) (domain or fragment)
chain: not shown
notes: human fascin 1, residues 260-493 (beta3 and beta4-trefoil domains); also called N-terminal domain deletion (beta-trefoil 1 and 2); C-domain; not shown: His tag (from the vector pFastBacHT)
stoichiometry N: 2
